Assay [1] has as its target constitutively active mutant (CAM) Asn^119Ser CXCR4 receptor (human) (UniProt P61073). Description: cell-based or functional assay.
Assay [2] concerns the target T1, CXCR2:YFP fusion protein (UniProt P25025 1-360).
T1 construct: whole, on cells
T1 sequence (looked up): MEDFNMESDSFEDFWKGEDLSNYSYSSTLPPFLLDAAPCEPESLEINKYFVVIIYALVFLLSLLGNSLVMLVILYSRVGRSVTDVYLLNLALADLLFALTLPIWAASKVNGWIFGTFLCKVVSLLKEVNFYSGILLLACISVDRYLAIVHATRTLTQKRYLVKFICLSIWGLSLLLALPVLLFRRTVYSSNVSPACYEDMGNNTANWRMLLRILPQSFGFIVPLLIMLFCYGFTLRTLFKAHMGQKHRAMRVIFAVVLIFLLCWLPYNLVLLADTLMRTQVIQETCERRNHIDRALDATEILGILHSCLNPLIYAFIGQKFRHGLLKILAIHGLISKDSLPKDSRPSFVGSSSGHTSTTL
Description: BRET in transiently transfected HEK293 cells. On the technique in general: BRET reads energy transfer from a luciferase to a nearby fluorophore.
Description: The day after, cells were distributed in poly-lysine pre-coated white 96 MW plates in complete culture medium [DMEM supplemented with 10% FBS]. Cells were first cultivated at 37° C. with CO₂ 5% in order to allow cell attachment to the plate. Cells were then starved with 200 μl DMEM/well overnight. Immediately prior to the BRET experiment, DMEM was removed and cells were quickly washed with PBS. […] After incubation for further 10 minutes at 37° C., light-emission acquisition at 485 nm and 530 nm was initiated using the Mithras LB940 multilabel reader (Berthold) (1 s/wavelength/well repeated 15 times at room temperature).
Calculation of BRET ratio was performed as previously described (Angers et al., 2000): [(emission_{530 nm})−(emission_{485 nm})×Cf]/(emission_{485 nm}), where Cf=(emission_{530 nm}) (emission_{485 nm}) for cells expressing the Rluc fusion protein alone under the same experimental conditions. […] For sake of readability, results are expressed in milliBRET units (mBU); mBU corresponds to the BRET ratio multiplied by 1000.

For assay [3], the target named is T2, human CXCR4 receptor (human, UniProt P61073 1-352). As to the kind of experiment: cell-based or functional assay.
Assay [4] deals with T2, human CXCR4 receptor. As to the kind of experiment: competition of [^125I]SDF-1 (1 nM) binding, Mab at 100 nM, SPA, CHO-K1 membranes expressing human CXCR4. As to the method:
(§1) CHO-K1 cells, stably and constitutively expressing human CXCR4 receptor were obtained upon transfection of naïve CHO-K1 cells (ATCC CCL-61) with a mammalian expression vector carrying the whole coding sequence of human CXCR4 receptor (RefSeq NM_{—}003467). Cells were propagated in complete culture medium [DMEM-Ham's F12 supplemented with 5% fetal calf serum (FCS) and 500 μg/ml of geneticin]. Radioligand binding experiments were conducted on cell membranes obtained upon mechanical scrapping of CHO/CXCR4 cells in lysis buffer [Hepes 20 mM, pH 7.4, NaCl 150 mM] followed by centrifugation (10000 g, 15 min). […] Upon centrifugation [1000 g for 10 min.] radioactive counts were measured in a scintillation counter (TopCount, Perkin Elmer).

The target in assay [5] is T2, human CXCR4 receptor. Description: competition of [^125I]SDF-1 (1 nM) binding, SPA, CHO-K1 membranes expressing human CXCR4. As to the method:
as §1

The target of assay [6] is T2, human CXCR4 receptor. As to the kind of experiment: dose-dependent inhibition of [^125I]SDF-1 binding, SPA, CHO-K1 membranes expressing human CXCR4. The protocol:
as §1

For assay [7], the target named is T2, human CXCR4 receptor. As to the kind of experiment: flow cytometry competition on CXCR4 transfected NIH3T3 cells; competitor: biotinylated murine 515H7. An excerpt: In a first series of experiments, we constructed and analysed the anti-CXCR4 binding activities of the three first humanized variants. […] Therefore, VH1 was combined with the three different variants of VL (FIG. 23D-F).
(In flow cytometry, cells or beads pass a laser one at a time.)

Here are results for eleven molecules from US20130031647A1 (PIERRE FABRE MEDICAMENT, published 2013).

Take T140 (peptide): in assay [1], the inhibition of SDF-1-stimulated [^35S]GTPγS binding was -159% and the inhibition of basal [^35S]GTPγS binding was -17%.

B1: CXCR4/Rluc fusion protein (receptor, UniProt P61073 1-352, looked up)
chain: MEGISIYTSDNYTEEMGSGDYDSMKEPCFREENANFNKIFLPTIYSIIFLTGIVGNGLVILVMGYQKKLRSMTDKYRLHLSVADLLFVITLPFWAVDAVANWYFGNFLCKAVHVIYTVNLYSSVLILAFISLDRYLAIVHATNSQRPRKLLAEKVVYVGVWIPALLLTIPDFIFANVSEADDRYICDRFYPNDLWVVVFQFQHIMVGLILPGIVILSCYCIIISKLSHSKGHQKRKALKTTVILILAFFACWLPYYIGISIDSFILLEIIKQGCEFENTVHKWISITEALAFFHCCLNPILYAFLGAKFKTSAQHALTSVSRGSSLKILSKGKRGGHSSVSTESESSSFHSS
notes: whole, on cells; Transiently expressed in HEK293 cells for BRET; also called CXCR4 tagged with luciferase; not shown: Renilla reniformis luciferase (Rluc)
For B1, the binding result in assay [2] is reported as “binds”.

B2: murine monoclonal antibody 515H7 (antibody, V domains shown)
VH: EVNLVESGGGLVQPGGSLRLSCATSGFTFTDNYMSWVRQPPGKALEWLGFIRNKANGYTTDYSASVRGRFTISRDNSQSILYLQMNALRAEDSATYYCARDVGSNYFDYWGQGTTLTVSS
VL: DIVMSQSPSSLAVSAGEKVTMSCKSSQSLFNSRTRKNYLAWYQQKPGQSPKLLIYWASARDSGVPARFTGSGSETYFTLTISRVQAEDLAVYYCMQSFNLRTFGQGTKVEIK
B2: in assay [3], the “IC50 in [^35S]GTPγS binding, Hela cells” value turned out to be 0.2 nM; the “IC50 in [^35S]GTPγS binding, NIH3T3/CXCR4 cells” value (“IC50 … NIH3T3/CXCR4 cells” below) came out at 1.9 nM; the “decrease in SDF-1-induced U937 cells migration” value was over 80%; the “inhibition of SDF-1-induced β-arrestin recruitment (BRET)” value (“inhibition … (BRET)” below) was about 95%.

B3: anti-CXCR4 chimeric Mab c515H7 (antibody, human IgG1, kappa, V domains shown)
VH: EVNLVESGGGLVQPGGSLRLSCATSGFTFTDNYMSWVRQPPGKALEWLGFIRNKANGYTTDYSASVRGRFTISRDNSQSILYLQMNALRAEDSATYYCARDVGSNYFDYWGQGTTLTVSS
VL: DIVMSQSPSSLAVSAGEKVTMSCKSSQSLFNSRTRKNYLAWYQQKPGQSPKLLIYWASARDSGVPARFTGSGSETYFTLTISRVQAEDLAVYYCMQSFNLRTFGQGTKVEIKR
notes: also called chimeric 515H7; chimeric antibody
On to B3, for which, in assay [3], the “IC50 in [^35S]GTPγS binding, Hela cells” value was 0.6 nM; the “IC50 … NIH3T3/CXCR4 cells” value is 1.5 nM; the “decrease in SDF-1-induced U937 cells migration” value was over 80%; the “inhibition … (BRET)” value is about 93%. For the same molecule, in assay [4], the “% inhibition of [^125I]SDF-1” value was found to be 55%.

B4: humanized antibody Hz515H7 VH1 D76N VL2.2 (antibody, human IgG1, kappa, V domains shown)
VH: EVQLVESGGGLVQPGRSLRLSCTASGFTFTDNYMSWVRQAPGKGLEWVGFIRNKANGYTTEYAASVKGRFTISRDNSKSIAYLQMNSLKTEDTAVYYCARDVGSNYFDYWGQGTLVTVSS
VL: DIVMTQSPDSLAVSLGERATMSCKSSQSLFNSRTRKNYLAWYQQKPGQPPKLLIYWASARDSGVPDRFTGSGSETYFTLTISRVQAEDVAVYYCMQSFNLRTFGQGTKVEIKR
notes: human IgG1/kappa format; also called hz515H7VL2.2
The IC50 is the concentration that inhibits the measured activity by half. Read a high IC50 as weaker potency. As to B4, the “% inhibition of [^125I]SDF-1” value in assay [5] turned out to be 61%. Besides, in assay [3], the “% of inhibition of [^35S]GTPγS binding stimulated by SDF-1 (100 nM)” value (from here on “% of inhibition … (100 nM)”) is 66%; the “IC50 … NIH3T3/CXCR4 cells” value is 5.19 nM; the “inhibition … (BRET)” value was about 82%; the “percentage of inhibition of SDF-1-induced BRET increase, CXCR4 homo-dimers” value is about 33%. In addition, the half-maximal inhibitory concentration (IC50) in assay [6] turned out to be 5.91 nM.

B5: humanized antibody Hz515H7 VH1/c515H7 VL (antibody, human IgG1, V domains shown)
VH: EVQLVESGGGLVQPGRSLRLSCTASGFTFTDNYMSWVRQAPGKGLEWVGFIRNKANGYTTEYAASVKGRFTISRDDSKSIAYLQMNSLKTEDTAVYYCARDVGSNYFDYWGQGTLVTVSS
VL: DIVMSQSPSSLAVSAGEKVTMSCKSSQSLFNSRTRKNYLAWYQQKPGQSPKLLIYWASARDSGVPARFTGSGSETYFTLTISRVQAEDLAVYYCMQSFNLRTFGQGTKVEIKR
notes: also called VH1 combined with the chimeric VL (cVL); VH1 combined with the murine VL
Take B5: the binding result in assay [7] is “binds”.

B6: humanized antibody Hz515H7 VH1 D76N VL2.1 (antibody, human IgG1, kappa, V domains shown)
VH: EVQLVESGGGLVQPGRSLRLSCTASGFTFTDNYMSWVRQAPGKGLEWVGFIRNKANGYTTEYAASVKGRFTISRDNSKSIAYLQMNSLKTEDTAVYYCARDVGSNYFDYWGQGTLVTVSS
VL: DIVMTQSPDSLAVSLGERATMSCKSSQSLFNSRTRKNYLAWYQQKPGQPPKLLIYWASARDSGVPDRFSGSGSETYFTLTISRVQAEDLAVYYCMQSFNLRTFGQGTKVEIKR
notes: human IgG1/kappa format; also called hz515H7VL2.1
As for B6, the “% inhibition of [^125I]SDF-1” value in assay [5] turned out to be 68%. In addition, in assay [3], the “% of inhibition … (100 nM)” value came out at 69%; the “IC50 … NIH3T3/CXCR4 cells” value came out at 4.05 nM; the “inhibition … (BRET)” value was about 81%; the “percentage of inhibition of SDF-1-induced BRET increase, CXCR4 homo-dimers” value was about 65%. Also, the IC50 in assay [6] stood at 6.69 nM.

B7: humanized antibody Hz515H7 VH1 VL1 (antibody, human IgG1, kappa, V domains shown)
VH: EVQLVESGGGLVQPGRSLRLSCTASGFTFTDNYMSWVRQAPGKGLEWVGFIRNKANGYTTEYAASVKGRFTISRDDSKSIAYLQMNSLKTEDTAVYYCARDVGSNYFDYWGQGTLVTVSS
VL: DIVMTQSPDSLAVSLGERATINCKSSQSLFNSRTRKNYLAWYQQKPGQPPKLLIYWASTRESGVPDRFSGSGSGTDFTLTISSLQAEDVAVYYCMQSFNLRTFGQGTKVEIKR
notes: human IgG1/kappa format; also called humanized variant 515H7 VH variant 1 VL variant 1
In the case of B7, the binding result in assay [7] is “binds”.

B8: hz515H7 VH1 VL2 (antibody, human IgG1, kappa, V domains shown)
VH: EVQLVESGGGLVQPGRSLRLSCTASGFTFTDNYMSWVRQAPGKGLEWVGFIRNKANGYTTEYAASVKGRFTISRDDSKSIAYLQMNSLKTEDTAVYYCARDVGSNYFDYWGQGTLVTVSS
VL: DIVMTQSPSSLAVSLGERATMSCKSSQSLFNSRTRKNYLAWYQQKPGQSPKLLIYWASARDSGVPARFTGSGSETYFTLTISRVQAEDLAVYYCMQSFNLRTFGQGTKVEIKR
notes: also called VH1 combined with variant 2 of VL
For B8, in assay [7], the binding result is listed as “binds”.

B9: humanized antibody Hz515H7 VH1 D76N VL2.3 (antibody, human IgG1, kappa, V domains shown)
VH: EVQLVESGGGLVQPGRSLRLSCTASGFTFTDNYMSWVRQAPGKGLEWVGFIRNKANGYTTEYAASVKGRFTISRDNSKSIAYLQMNSLKTEDTAVYYCARDVGSNYFDYWGQGTLVTVSS
VL: DIVMTQSPDSLAVSLGERATMSCKSSQSLFNSRTRKNYLAWYQQKPGQPPKLLIYWASARDSGVPDRFTGSGSETYFTLTISSLQAEDLAVYYCMQSFNLRTFGQGTKVEIKR
notes: human IgG1/kappa format; also called hz515H7VL2.3
Turning to B9, the “% inhibition of [^125I]SDF-1” value in assay [5] was determined as 49%. Besides, in assay [3], the “% of inhibition … (100 nM)” value turned out to be 58%; the “IC50 … NIH3T3/CXCR4 cells” value worked out at 8.5 nM; the “inhibition … (BRET)” value is about 71%; the “percentage of inhibition of SDF-1-induced BRET increase, CXCR4 homo-dimers” value is about 21%.

B10: humanized antibody Hz515H7 VH1 D76N VL2 (antibody, human IgG1, kappa, V domains shown)
VH: EVQLVESGGGLVQPGRSLRLSCTASGFTFTDNYMSWVRQAPGKGLEWVGFIRNKANGYTTEYAASVKGRFTISRDNSKSIAYLQMNSLKTEDTAVYYCARDVGSNYFDYWGQGTLVTVSS
VL: DIVMTQSPSSLAVSLGERATMSCKSSQSLFNSRTRKNYLAWYQQKPGQSPKLLIYWASARDSGVPARFTGSGSETYFTLTISRVQAEDLAVYYCMQSFNLRTFGQGTKVEIKR
notes: human IgG1/kappa format; Biotinylated in the IHC study; also called hz515H7VL2; hz515H7 VH D76N VL2
With B10, the “% inhibition of [^125I]SDF-1” value in assay [5] turned out to be 77%. Further, in assay [3], the “% of inhibition … (100 nM)” value is 86%; the “IC50, SDF-1 induced U937 cell migration” value came to 4.53 ng/mL; the “IC50 … NIH3T3/CXCR4 cells” value amounted to 3.86 nM; the “inhibition … (BRET)” value was about 94%. Moreover, in assay [3], the “percentage of inhibition of SDF-1-induced BRET increase, CXCR4 homo-dimers” value is about 88%. Besides, the IC50 in assay [6] is 1.44 nM.
